Each block holds one molecule with its values, some of them ahead of it.
Key:
[1] = target: AαBβγ half-molecule of human fibrinogen (human) (UniProt P02671); experiment: SEC
[2] = target: T1, fibrinogen Bβ chain (human) (human, UniProt P02675 31-491, N-linked glycan at N364); experiment: SEC
T1 sequence (looked up): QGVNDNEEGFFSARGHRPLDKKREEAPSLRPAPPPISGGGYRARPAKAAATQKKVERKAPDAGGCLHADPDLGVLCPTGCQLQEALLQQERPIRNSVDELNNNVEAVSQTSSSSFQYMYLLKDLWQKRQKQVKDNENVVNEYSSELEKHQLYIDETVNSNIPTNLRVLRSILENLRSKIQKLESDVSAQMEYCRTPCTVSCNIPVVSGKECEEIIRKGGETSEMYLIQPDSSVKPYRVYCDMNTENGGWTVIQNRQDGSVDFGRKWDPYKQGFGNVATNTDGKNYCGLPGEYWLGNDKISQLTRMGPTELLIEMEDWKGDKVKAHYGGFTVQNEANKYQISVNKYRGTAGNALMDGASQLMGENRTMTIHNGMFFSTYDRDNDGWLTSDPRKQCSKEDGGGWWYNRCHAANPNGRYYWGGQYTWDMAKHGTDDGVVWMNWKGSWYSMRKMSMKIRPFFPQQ

stoichiometry N [1]: 2
Molecule: AαBβγ half-molecule of human fibrinogen (from UniProt P02671-2 20-644; P02675 31-491; P02679-2 27-437) (complex)

binding result [2]: binds
B1: fibrinogen γ chain, γ-A isoform (human) (natural protein, UniProt P02679-2 27-437, looked up)
chain: YVATRDNCCILDERFGSYCPTTCGIADFLSTYQTKVDKDLQSLEDILHQVENKTSEVKQLIKAIQLTYNPDESSKPNMIDAATLKSRKMLEEIMKYEASILTHDSSIRYLQEIYNSNNQKIVNLKEKVAQLEAQCQEPCKDTVQIHDITGKDCQDIANKGAKQSGLYFIKPLKANQQFLVYCEIDGSGNGWTVFQKRLDGSVDFKKNWIQYKEGFGHLSPTGTTEFWLGNEKIHLISTQSAIPYALRVELEDWNGRTSTADYAMFKVGPEADKYRLTYAYFAGGDAGDAFDGFDFGDDPSDKFFTSHNGMQFSTWDNDNDKFEGNCAEQDGSGWWMNKCHAGHLNGVYYQGGTYSKASTPNGYDNGIIWATWKTRWYSMKKTTMKIIPFNRLTIGEGQQHHLGGAKQAGDV
modifications: N-linked glycan at N52

Reference: publication doi:10.1101/2022.09.05.506423 (bioRxiv, 2022)
